The term Kd denotes the constant that tells how readily two partners part at equilibrium. Broadly, the EC50 (read off the curve) is the concentration needed to bring the measured effect to its halfway point. Higher therefore signals a need for much substance.

The values below come from patent US20230021388A1 (VELOSBIO, published 2023).

In assay [1] the target is T1, recombinant human ROR1 extracellular domain (human, UniProt Q01973 30-406).
T1 construct: biotinylated for the filter lifts; also called huROR1-ECD; human ROR1-ECD
The assay is described as follows: ELISA with prolonged wash, soluble Fab on coated huROR1-ECD. The method, then:
(§1) The previously described filter lift assay provides a visual, qualitative assessment of antigen binding (Example 1). In order to assess the ROR1 binding activity of Ab1 Fab in a more quantitative fashion, an ELISA assay was developed. A 96-well Costar-3366 plate was coated with 50 μL/well of 1 μg/mL human ROR1-ECD (ACROBiosystems, cat. #RO1-H522y) in PBS overnight at 4° C. The plate was rinsed once with PBS-T and blocked with 100 μL/well of 5% M-P for 1 h at 25° C. Fab samples were serially diluted 3-fold using 5% M-P and 50 μL/well was incubated for 1 h at 25° C. The plate was washed three times with PBS-T and 50 μL/well anti-human kappa, and HRP conjugate (Southern Biotech, cat. #2060-05) diluted 10,000-fold in 5% M-P was added for 1 h at 25° C. In certain assays (extended wash format), the plate was placed in large volumes (up to 1 L) of PBS-T and incubated, with mixing, for 2-5 h prior to the addition of anti-human kappa, HRP conjugate. The plate was washed three times with PBS-T, and developed with 50 μL/well 1-Step Ultra TMB-ELISA (Thermo Scientific, cat. #34028). The reaction was terminated by the addition of 2 N H2504 and the A450 was determined using a Spectramax plate reader.
(§2) Subsequently, the libraries were screened by capture lift to identify the strongest binding variants. The identity of the variants was determined by DNA sequencing and the relative affinities were characterized using an ELISA (described in Example 2) modified to enable further discrimination between the highest affinity variants. Specifically, following the initial incubation with soluble Fab, the plates were washed for a prolonged time (>1 h) in large volumes of PBS-T. The plates were then developed as described in Example 2.
(In general: In an ELISA, binding on a coated surface is turned into a signal by an enzyme label.)

In assay [2] the target is T1, recombinant human ROR1 extracellular …. The description is as above. The method, then:
as §1, §2
The source holds these as a separate data set.

For another assay, the target named is T2, human ROR1 on live cells (human, UniProt Q01973 30-937).
T2 construct: ROR1-transfected MEC cells (~56,000 copies/cell) or JeKo-1 cells (~13,000 copies/cell); the cell line is named under assay; also called ROR1-transfected MEC cells; JeKo-1 cells
The assay is described as follows: flow cytometry on live JeKo-1 cells, Fab detected with anti-HA-PE. The method, then: ROR1 binding was quantitated using flow cytometry and 2.5E5 ROR1-transfected MEC cells or JeKo-1 cells for each concentration of Fab variant. The cells were placed in 50 μL of PBS with 2% FBS. Next, the cells were diluted with an equal volume of 2× stock of the test Fab variant and the cells and antibody were co-incubated on ice for 20 min. The cells were then washed 3 times with 300 μL of FACS buffer and were resuspended in 100 μL of a 70-fold dilution of anti-HA.11-PE conjugate, clone 16B12 (BioLegend, cat. #901517) and incubated on ice with reduced light for 20 min. Subsequently, the cells were washed 3 times with 300 μL of FACS buffer and fixed with 2% paraformaldehyde for 10 min at 25° C. The cells then were washed 2 times with 300 μL of FACS buffer and analyzed on a Miltenyi MACSQuant Analyzer.

The target in assay [3] is T1, recombinant human ROR1 extracellular …. The experiment in a line: ELISA, soluble Fab on coated huROR1-ECD.
Assay [4] shares this target. The assay is described as follows: ELISA, soluble Fab on coated huROR1-ECD. How it is done:
as §1
The source holds these as a separate data set.

The target is the same in assay [5]. The experiment in a line: ELISA with prolonged wash, soluble Fab on coated huROR1-ECD. The method, then: as §1, §2
This is another data set of the same source.

Assay [6] has the same target. The assay is described as follows: ELISA, soluble Fab on coated huROR1-ECD. The source holds these as a separate data set.

Changes are numbered by the printed parent chain. Names may count otherwise.

T1 sequence (Q01973 30-406 limits assumed): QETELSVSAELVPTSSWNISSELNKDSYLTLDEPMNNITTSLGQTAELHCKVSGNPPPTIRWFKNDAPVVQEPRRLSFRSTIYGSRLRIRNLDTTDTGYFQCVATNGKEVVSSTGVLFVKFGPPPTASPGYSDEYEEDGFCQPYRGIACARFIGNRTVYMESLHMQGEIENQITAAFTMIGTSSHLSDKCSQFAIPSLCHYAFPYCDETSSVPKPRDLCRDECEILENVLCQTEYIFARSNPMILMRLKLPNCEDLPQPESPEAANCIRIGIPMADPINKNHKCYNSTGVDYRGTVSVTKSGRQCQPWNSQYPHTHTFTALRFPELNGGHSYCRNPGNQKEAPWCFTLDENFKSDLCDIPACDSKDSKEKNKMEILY
T2 sequence (Q01973 30-937 limits assumed): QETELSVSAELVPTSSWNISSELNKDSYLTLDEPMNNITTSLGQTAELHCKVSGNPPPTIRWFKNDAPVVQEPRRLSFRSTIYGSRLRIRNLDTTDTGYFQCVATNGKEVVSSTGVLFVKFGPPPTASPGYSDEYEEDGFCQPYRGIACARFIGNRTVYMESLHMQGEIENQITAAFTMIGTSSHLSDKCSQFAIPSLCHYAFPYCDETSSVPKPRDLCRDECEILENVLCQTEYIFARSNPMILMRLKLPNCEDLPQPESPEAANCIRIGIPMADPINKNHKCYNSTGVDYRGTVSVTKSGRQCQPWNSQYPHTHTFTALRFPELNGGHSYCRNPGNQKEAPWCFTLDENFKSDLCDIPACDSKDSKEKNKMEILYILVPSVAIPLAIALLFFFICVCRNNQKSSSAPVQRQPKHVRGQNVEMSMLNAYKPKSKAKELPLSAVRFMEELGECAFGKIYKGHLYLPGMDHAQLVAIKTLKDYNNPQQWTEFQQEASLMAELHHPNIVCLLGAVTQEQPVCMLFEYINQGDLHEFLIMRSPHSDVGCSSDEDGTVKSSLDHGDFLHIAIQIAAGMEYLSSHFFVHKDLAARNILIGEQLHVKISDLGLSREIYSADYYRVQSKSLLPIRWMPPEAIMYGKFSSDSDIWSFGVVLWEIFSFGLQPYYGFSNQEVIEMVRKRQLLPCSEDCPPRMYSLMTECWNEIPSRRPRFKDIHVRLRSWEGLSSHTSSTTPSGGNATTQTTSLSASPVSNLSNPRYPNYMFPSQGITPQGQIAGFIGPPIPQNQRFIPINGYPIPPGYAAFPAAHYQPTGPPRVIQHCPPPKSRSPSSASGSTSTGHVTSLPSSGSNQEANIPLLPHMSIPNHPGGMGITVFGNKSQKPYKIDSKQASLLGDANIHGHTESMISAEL

B1: Ab1 Fab variant H1 T32A + L1 A25P (Fab, V domains shown)
VH: QVQLQESGPGLVKPSQTLSLTCTVSGYAFAAYNIHWVRQAPGQGLEWMGSFDPYDGGSSYNQKFKDRLTISKDTSKNQVVLTMTNMDPVDTATYYCARGWYYFDYWGHGTLVTVSS
VL: DIVMTQTPLSLPVTPGEPASISCRPSKSISKYLAWYQQKPGQAPRLLIYSGSTLQSGIPPRFSGSGYGTDFTLTINNIESEDAAYYFCQQHDESPYTFGEGTKVEIK
notes: Fab
For B1, the Kd in assay [1] and in assay [2] was 1.8 nM in each case.

B2: Ab1 Fab variant H1 T32A + L1 A25P + L2 L70K (Fab, V domains shown)
VH: B1 VH
VL: B1 VL with L54K
notes: Fab
Take B2: the concentration for a half-maximal effect (EC50 (read off the curve)) with human ROR1 on live cells is approximately 1 nM. Moreover, the Kd in assay [2] is 2.1 nM.

B3: Ab1 Fab variant H3 W110Y (Fab, V domains shown)
VH: B1 VH with A30T, W100Y
VL: B1 VL with P25A
notes: Fab
For the molecule B3, in assay [3], the “fold reduction of binding against Ab1” value fell in the range of 10 to 23 fold. In addition, the Kd in assay [4] worked out at 68 nM.

B4: Ab1 Fab variant H1 T32A + L1 K29E (Fab, V domains shown)
VH: B1 VH
VL: B1 VL with P25A, K27E
notes: Fab
Turning to B4, the Kd in assay [1] came to 3.3 nM.

B5: Ab1 Fab variant H1 T32A + L1 K29S + L2 T69R (Fab, V domains shown)
VH: B1 VH
VL: B1 VL with P25A, K27S, T53R
notes: Fab
In the case of B5, the Kd in assay [1] worked out at 2.1 nM. Also, in the assay with human ROR1 on live cells, the “EC50 (read off the curve)” value was approximately 1 nM.

B6: Ab1 Fab variant H1 T32A + L1 A25P + L2 Q71T (Fab, V domains shown)
VH: B1 VH
VL: B1 VL with Q55T
notes: Fab
For the molecule B6, the Kd in assay [2] is 2.9 nM.

B7: Ab1 Fab variant H1 T32A + L2 T69R (Fab, V domains shown)
VH: B1 VH
VL: B1 VL with P25A, T53R
notes: Fab
Turning to B7, the values for the Kd in assay [1] and in assay [5] were 2.3 nM and 1.1 nM, respectively. The “EC50 (read off the curve)” value with human ROR1 on live cells is approximately 2 nM.

B8: Ab1 Fab variant H1 T32A + L1 A25P + L2 T69R (Fab, V domains shown)
VH: B1 VH
VL: B1 VL with T53R
notes: Fab
B8: the Kd in assay [1] was 2.1 nM; in assay [2] it was 2.4 nM. Also, the “EC50 (read off the curve)” value with human ROR1 on live cells was approximately 1 nM.

B9: Ab1 Fab variant H1 T32A + L2 T69R, Q71T (Fab, V domains shown)
VH: B1 VH
VL: B1 VL with P25A, T53R, Q55T
notes: Fab
As to B9, in the assay with human ROR1 on live cells, the “EC50 (read off the curve)” value is approximately 1 nM. The Kd in assay [5] stood at 1.1 nM.

B10: Ab1 Fab variant H1 T32A + L2 T69H, L70K, Q71T (Fab, V domains shown)
VH: B1 VH
VL: B1 VL with P25A, T53H, L54K, Q55T
notes: Fab
Regarding B10, in assay [5], the Kd came to 1.4 nM.

B11: Ab1 Fab variant H1 T32A + L2 L70K, Q71T (Fab, V domains shown)
VH: B1 VH
VL: B1 VL with P25A, L54K, Q55T
notes: Fab
Take B11: in assay [5], the Kd came out at 1.6 nM.

B12: Ab1 Fab variant H1 T32A + L2 T69H (Fab, V domains shown)
VH: B1 VH
VL: B1 VL with P25A, T53H
notes: Fab
Take B12: in assay [5], the Kd came out at 2.3 nM.

B13: Ab1 Fab variant H3 W110H (Fab, V domains shown)
VH: B1 VH with A30T, W100H
VL: B1 VL with P25A
notes: Fab
As to B13, in assay [4], the Kd was 110 nM.

B14: Ab1 Fab variant H1 T32A + L1 K29E + L2 T69R (Fab, V domains shown)
VH: B1 VH
VL: B1 VL with P25A, K27E, T53R
notes: Fab
Consider B14, for which the Kd in assay [1] worked out at 4.8 nM.

B15: Ab1 Fab variant H1 T32A + L2 T69H, L70K (Fab, V domains shown)
VH: B1 VH
VL: B1 VL with P25A, T53H, L54K
notes: Fab
Consider B15, for which the Kd in assay [5] is 1.8 nM.

B16: Ab1 Fab variant H3 W110F (Fab, V domains shown)
VH: B1 VH with A30T, W100F
VL: B1 VL with P25A
notes: Fab
Turning to B16, in assay [4], the Kd came out at 96 nM.

B17: Ab1 Fab variant H1 T32A + L2 L70K (Fab, V domains shown)
VH: B1 VH
VL: B1 VL with P25A, L54K
notes: Fab
For the molecule B17, in assay [5], the Kd amounted to 1.6 nM.

B18: Ab1 Fab variant H1 T32A + L1 K29S (Fab, V domains shown)
VH: B1 VH
VL: B1 VL with P25A, K27S
notes: Fab
B18: the Kd in assay [1] stood at 2.1 nM. Moreover, in the assay with human ROR1 on live cells, the “EC50 (read off the curve)” value was approximately 2 nM.

B19: Ab1 Fab variant H3 W110M (Fab, V domains shown)
VH: B1 VH with A30T, W100M
VL: B1 VL with P25A
notes: Fab
On to B19, for which the “fold reduction of binding against Ab1” value in assay [3] was in the range of 10 to 23 fold. Besides, the Kd in assay [4] is 160 nM.

B20: Ab1 Fab variant H1 T32A + L1 A25P + L2 T69H (Fab, V domains shown)
VH: B1 VH
VL: B1 VL with T53H
notes: Fab
For B20, the dissociation constant (Kd) in assay [2] is 2.3 nM.

B21: Ab1 Fab variant H1 T32E (Fab, V domains shown)
VH: B1 VH with A30E
VL: B1 VL with P25A
notes: Fab
Turning to B21, in assay [6], the Kd came out at 3.3 nM. Further, the “fold increase of binding against Ab1” value in assay [3] was approximately 2 fold.

B22: Ab1 Fab variant H1 T32A + L1 A25P, K29S + L2 T69R (Fab, V domains shown)
VH: B1 VH
VL: B1 VL with K27S, T53R
notes: Fab
For the molecule B22, in assay [1], the Kd is 3.9 nM.
